Results reported in the supplement of paper PMC10724198.
± gives the standard deviation of the averaged measurements.

The sequences below were run on Saccharomyces cerevisiae (assay: protein stability index of tFT-peptide fusion (C-terminal peptide) (PSI (0-1 scale)); higher = more stable (slower turnover)). Settings: genetic background: wild type; temperature: 30 C.
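Further: PSI is a weighted mean of sequencing reads over stability bins, variants kept only with over 10 reads, mCherry proximal and sfGFP distal, peptide attached via GGGS linker.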

Row | Sequence | protein stability index
1 | RRERQRRARTEI | 0.6876 ± 0.0036
2 | RREVFIPSTRVL | 0.698 ± 0.044
3 | RRGAPSYATLAL | 0.637 ± 0.0073
4 | RRGASWDEDAGS | 0.719 ± 0.0086
5 | RRGENQSFPACR | 0.701 ± 0.028
6 | RRGHMTRFTHSR | 0.692 ± 0.077
7 | RRGPDRCSSLPS | 0.6638 ± 0.0044
8 | RRHHSVSPLPFL | 0.709 ± 0.0099
9 | RRIGKTFLSLNI | 0.709 ± 0.073
10 | RRKGGEERKLKK | 0.629 ± 0.037
11 | RRKRTKGRGRAQ | 0.6986 ± 0.002
12 | RRLAGRPVTRGA | 0.667 ± 0.015
13 | RRLEPGVAWFPT | 0.661 ± 0.01
14 | RRLLRWFYLDGG | 0.661 ± 0.022
15 | RRMAGEPKCGRS | 0.699 ± 0.015
16 | RRPGGQGHPNAG | 0.752 ± 0.023
17 | RRPGSTTPPAYR | 0.675 ± 0.048
18 | RRPTVLRHQSPI | 0.737 ± 0.031
19 | RRREESGEGSEQ | 0.635 ± 0.073
20 | RRRLLLWEELVE | 0.7706 ± 0.004
21 | RRRQARGANAHS | 0.7 ± 0.013
22 | RRRRAVGPREAP | 0.717 ± 0.17
23 | RRRREKWSVVHR | 0.758 ± 0.0096
24 | RRRTARVRTGQV | 0.647 ± 0.043
25 | RRRVADIYHGEK | 0.713 ± 0.086

Row | Sequence | protein stability index
26 | RRSGLTNLCSLH | 0.746 ± 0.04
27 | RRSRPSSPYLPP | 0.707 ± 0.0094
28 | RRTTYKKVKRKK | 0.65 ± 0.062
29 | RRVGPVSPNWIS | 0.6499 ± 0.0042
30 | RRVPVVSRAGGG | 0.697 ± 0.067
31 | RRWAFWGAAAAR | 0.702 ± 0.013
32 | RRWCATLGRDRV | 0.7029 ± 0.0051
33 | RRWGGCPGVRGC | 0.666 ± 0.019
34 | RSANIINPHIFP | 0.758 ± 0.014
35 | RSASPPRPLPPP | 0.737 ± 0.032
36 | RSCCSFRLEPYC | 0.671 ± 0.026
37 | RSCVGGISVLVL | 0.466 ± 0.085
38 | RSEPRQILHRQT | 0.702 ± 0.025
39 | RSFAGTTRIRLG | 0.739 ± 0.043
40 | RSFLTDLLRGAA | 0.647 ± 0.054
41 | RSFPYLLFPPPS | 0.713 ± 0.046
42 | RSGLHGSGRPGG | 0.715 ± 0.053
43 | RSHPSPPPVILY | 0.686 ± 0.045
44 | RSLGFPLRNVTH | 0.655 ± 0.015
45 | RSLGLVGRGFWG | 0.728 ± 0.086
46 | RSLRSSRSGTLA | 0.848 ± 0.014
47 | RSMLVSRQSIGV | 0.695 ± 0.019
48 | RSNECTSEMEVC | 0.689 ± 0.04
49 | RSPPPSLTPSPL | 0.68193 ± 0.00027
50 | RSPTGSPGRSFS | 0.687 ± 0.025

Row | Sequence | protein stability index
51 | RSRATIGSQILS | 0.688 ± 0.01
52 | RSRCHPRLPRAV | 0.707 ± 0.03
53 | RSRHPPPPLLFP | 0.707 ± 0.043
54 | RSRLSEAEEYGR | 0.71 ± 0.0072
55 | RSRPPPSPTTPL | 0.775 ± 0.054
56 | RSRRFPPTRPPL | 0.73956 ± 0.00073
57 | RSRYRLFRADLS | 0.753 ± 0.062
58 | RSSGAFKVCTDR | 0.684 ± 0.019
59 | RSSGPPCLIPLP | 0.787 ± 0.047
60 | RSSLGSFSELSQ | 0.777 ± 0.031
61 | RSSPPHLPPPSL | 0.68 ± 0.026
62 | RSSSPLPLLSLL | 0.753 ± 0.053
63 | RSTLSPSPRPSP | 0.674 ± 0.0042
64 | RSTSGACSRRWL | 0.624 ± 0.025
65 | RSVSLIAVAPSA | 0.692 ± 0.017
66 | RSWIDNKMKVNV | 0.721 ± 0.0076
67 | RSYLLVWTSRLH | 0.637 ± 0.02
68 | RTAGQRLIRVNR | 0.744 ± 0.075
69 | RTAPVPETAQQD | 0.678 ± 0.034
70 | RTAVFLTRRYGT | 0.673 ± 0.02
71 | RTDKETIKKIVE | 0.72 ± 0.014
72 | RTLNPHLYRLRH | 0.682 ± 0.024
73 | RTRPCNGPGRFG | 0.724 ± 0.057
74 | RTTHPSPPTLTV | 0.629 ± 0.021
75 | RVCDSAPKRNRH | 0.676 ± 0.018

Row | Sequence | protein stability index
76 | RVCLVVWRECWF | 0.509 ± 0.0082
77 | RVCYRAELSAMS | 0.559 ± 0.045
78 | RVDGDFDYPRVV | 0.82 ± 0.11
79 | RVDLPFDRSVSD | 0.702 ± 0.057
80 | RVEADMKKRWTG | 0.716 ± 0.028
81 | RVGGPGNRGGVV | 0.696 ± 0.058
82 | RVGRCYPSIVRS | 0.6522 ± 0.0042
83 | RVGRKGRRRGSR | 0.767 ± 0.07
84 | RVGTGFVGYSFS | 0.679 ± 0.13
85 | RVGVEYGETGGG | 0.732 ± 0.29
86 | RVIHLRKIHYEE | 0.6728 ± 0.005
87 | RVLCYHFSPGVV | 0.656 ± 0.057
88 | RVLPPAPLQALQ | 0.645 ± 0.018
89 | RVLWVELGSWGG | 0.708 ± 0.045
90 | RVMPRVNDKKGI | 0.732 ± 0.092
91 | RVNQRRATSEKT | 0.677 ± 0.0082
92 | RVRDPQQISILL | 0.65 ± 0.025
93 | RVRGAPGLRHES | 0.5 ± 0.1
94 | RVRWLRGVPGGL | 0.635 ± 0.09
95 | RVVCGGMGVRRG | 0.63 ± 0.077
96 | RVVFHPFVQSLF | 0.62 ± 0.028
97 | RVVGLWGSACMG | 0.603 ± 0.01
98 | RVWFWSGRGGEF | 0.709 ± 0.1
99 | RWAMGAAGGLQA | 0.697 ± 0.021
100 | RWFGRFSFCLFF | 0.5 ± 0.055

Row | Sequence | protein stability index
101 | RWGPGAVWGRGR | 0.707 ± 0.068
102 | RWGWWGYRGGVP | 0.744 ± 0.025
103 | RWIPRMSFSESQ | 0.666 ± 0.0097
104 | RWLGGTGGWKSR | 0.673 ± 0.041
105 | RWPQNRGRVSKP | 0.747 ± 0.017
106 | RWVGWGAWLSEV | 0.611 ± 0.02
107 | RWVNNKKTKGQD | 0.767 ± 0.042
108 | RWVWRNRSGGGE | 0.636 ± 0.043
109 | RYELSLRLYGSL | 0.623 ± 0.089
110 | RYFISAHPGGIA | 0.66 ± 0.02
111 | RYGHSRLCLGFR | 0.657 ± 0.12
112 | RYHPRSHVLGRD | 0.682 ± 0.063
113 | RYKALEAQGPRF | 0.717 ± 0.0008
114 | RYLAEKAVLTHN | 0.659 ± 0.012
115 | RYSPFSFLASLP | 0.732 ± 0.049
116 | SACCNFAPAFGQ | 0.662 ± 0.019
117 | SADGIVSQVTCL | 0.693 ± 0.031
118 | SAFDVLCHVVVG | 0.634 ± 0.021
119 | SAFPGGCCSILL | 0.709 ± 0.022
120 | SAHPFLPLFSPP | 0.718 ± 0.012
121 | SALEVSPSNGSF | 0.598 ± 0.015
122 | SALTPCPPPYSH | 0.668 ± 0.032
123 | SALVLVLPSIPP | 0.649 ± 0.024
124 | SANCQQSRMFIT | 0.623 ± 0.044
125 | SAPILPPQSSSP | 0.749 ± 0.035

Row | Sequence | protein stability index
126 | SAPLVSLHLSPL | 0.68 ± 0.011
127 | SAPPDVAPLFSP | 0.74 ± 0.053
128 | SAQPELPNIAPA | 0.636 ± 0.049
129 | SARQCWFSLSDD | 0.639 ± 0.043
130 | SATPFSTEVCPL | 0.631 ± 0.028
131 | SATSFLAAGPPT | 0.6957 ± 0.0063
132 | SAVPFLRASRNA | 0.693 ± 0.034
133 | SAWTPPLCLLPP | 0.711 ± 0.043
134 | SCCPPSRTFFPS | 0.734 ± 0.0078
135 | SCHPDPTRKSPN | 0.7159 ± 0.0035
136 | SCIFRGNPFLLL | 0.711 ± 0.018
137 | SCIIWPAKGCPF | 0.687 ± 0.054
138 | SCLATDSWLAFV | 0.665 ± 0.058
139 | SCNILPRFSPLL | 0.723 ± 0.033
140 | SCSICLWVGHGC | 0.656 ± 0.028
141 | SCTDIGWIMRDI | 0.673 ± 0.061
142 | SCYRSCGALLSA | 0.694 ± 0.011
143 | SDFAPTRPPPAP | 0.634 ± 0.051
144 | SDGEHIYPESYR | 0.695 ± 0.023
145 | SDGVSLRSFCWL | 0.697 ± 0.035
146 | SDKRMGSLQMSS | 0.712 ± 0.033
